According to article PMC3316568, “Crystal Structure of Streptococcus pyogenes Csn2 Reveals Calcium-Dependent Conformational Changes in Its Tertiary and Quaternary Structure” (PLoS ONE, 2012):

Assays:
[1] = target: T1, Csn2 (Streptococcus pyogenes, UniProt Q99ZV9 1-220); test: EMSA; no added metal; DNA:Csn2 tetramer 1:0, 1:1, 1:10; non-specific binding; 50 mM NaCl, 20 mM HEPES pH 7.5, room temperature, 20 min; 150 ng DNA; 10% native Tris-glycine PAGE, ethidium bromide stain; conditions: protein: recombinant; tags: (His)6-MBP tag removed by TEV protease; chain copies: 4
T1 sequence: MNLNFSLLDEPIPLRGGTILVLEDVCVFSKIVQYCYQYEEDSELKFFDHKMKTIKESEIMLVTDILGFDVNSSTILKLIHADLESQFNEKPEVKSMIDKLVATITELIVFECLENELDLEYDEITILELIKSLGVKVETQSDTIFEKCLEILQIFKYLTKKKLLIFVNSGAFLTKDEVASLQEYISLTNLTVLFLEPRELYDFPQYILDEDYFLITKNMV

[2] = target: the molecule itself; test: crystal structure; selenomethionyl Csn2, 2.2 Å, MAD; crystals at 20°C from 150 mM KCl, 4 mM DTT, 100 mM HEPES pH 7.0 with 2.3 M sodium acetate pH 7.0; no calcium added; dimer in the asymmetric unit, tetramer with the symmetry-related dimer
[3] = target: the molecule itself; test: SEC; analytical, Superdex 200 10/300 GL; 200 mM NaCl, 2 mM DTT, 10 mM Tris-HCl pH 8.0; 0.5 mL of 1.0 mg/mL Csn2; no calcium added
[4] = target: T1, Csn2; test: EMSA; no added metal; DNA:Csn2 tetramer 1:0, 1:1, 1:10; 50 mM NaCl, 20 mM HEPES pH 7.5, room temperature, 20 min; 150 ng DNA; 10% native Tris-glycine PAGE, ethidium bromide stain; conditions: protein: recombinant; tags: (His)6-MBP tag removed by TEV protease; chain copies: 4

B1: control DNA 90 bp (ERD1 promoter) (dsDNA)
DNA 1: TCTTAAAACTCCACAAACATTACGGCAGTTAGAATTTAAATTTATCTTGGAATATTGTTTGTATATTATTAACAAATGTAAATTGGTGTA
DNA 2: TACACCAATTTACATTTGTTAATAATATACAAACAATATTCCAAGATAAATTTAAATTCTAACTGCCGTAATGTTTGTGGAGTTTTAAGA
binding result [1]: binds

B2: Selenomethionyl Streptococcus pyogenes Csn2 (natural protein)
chain: MNLNFSLLDEPIPLRGGTILVLEDVCVFSKIVQYCYQYEEDSELKFFDHKMKTIKESEIMLVTDILGFDVNSSTILKLIHADLESQFNEKPEVKSMIDKLVATITELIVFECLENELDLEYDEITILELIKSLGVKVETQSDTIFEKCLEILQIFKYLTKKKLLIFVNSGAFLTKDEVASLQEYISLTNLTVLFLEPRELYDFPQYILDEDYFLITKNMV
modifications: selenomethionine (SeMet labelling)
notes: Csn2, CRISPR-associated protein of the Nmeni subtype (type II-A), Streptococcus pyogenes; same construct as m1, expressed as selenomethionyl protein; residues up to 220 are named for the structure; Same construct as m1 with selenomethionine; Two monomers (A, B) in the asymmetric unit; the tetramer is formed with a symmetry-related dimer; also called SeMet Csn2; selenomethionyl S. pyogenes Csn2; …
stoichiometry N [2]: 4

B3: Streptococcus pyogenes Csn2 (native) (natural protein)
chain: MNLNFSLLDEPIPLRGGTILVLEDVCVFSKIVQYCYQYEEDSELKFFDHKMKTIKESEIMLVTDILGFDVNSSTILKLIHADLESQFNEKPEVKSMIDKLVATITELIVFECLENELDLEYDEITILELIKSLGVKVETQSDTIFEKCLEILQIFKYLTKKKLLIFVNSGAFLTKDEVASLQEYISLTNLTVLFLEPRELYDFPQYILDEDYFLITKNMV
notes: Csn2, CRISPR-associated protein of the Nmeni subtype (type II-A), Streptococcus pyogenes; the csn2 gene cloned into pHMGWA; monomeric molecular weight printed as 26.0 kDa; residues up to 220 are named for the structure; also called Native Csn2; source: E. coli BL21 (DE3), purified (HisTrap HP, TEV cleavage, second HisTrap HP, Superdex200); not shown: His6, N-terminal, cleaved; MBP, N-terminal, …
stoichiometry N [3]: 4

B4: S. pyogenes CRISPR DNA 90 bp (dsDNA)
DNA 1: TTTTAGACAAAAATAGTCTACGAGGTTTTAGAGCTATGCTGTTTTGAATGGTCCCAAAACTGCGCTGGTTGATTTCTTCTTGCGCTTTTT
DNA 2: AAAAAGCGCAAGAAGAAATCAACCAGCGCAGTTTTGGGACCATTCAAAACAGCATAGCTCTAAAACCTCGTAGACTATTTTTGTCTAAAA
binding result [4]: binds
